Data published in the supplement of paper PMC12042874.
± gives the uncertainty stated by the source.

Assays:
[1] = amyloid nucleation score (Sup35N fusion, yeast selection) (log enrichment); library NNK2; higher = more nucleation; inactive = no reads after selection
Procedure, shortened: (§1)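 The nucleation score, computed with DiMSum, is the log enrichment of output over input reads, centred on the mode score of non-aggregating sequences. Sequences with under 100 input reads were dropped. Reads were generated by Illumina sequencing of plasmid inserts from psi-negative yeast with Sup35N fused to peptides of 20 random codons, induced with 100 μM copper sulfate for 24 hours and grown 7 days at 30°C on medium lacking adenine and uracil.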

[2] = amyloid nucleation score (Sup35N fusion, yeast selection) (log enrichment); library NNK3; higher = more nucleation; inactive = no reads after selection
Procedure, shortened: as §1

In the case of ASGKWHSCAGSGDYM, the amyloid nucleation score [1] is reported as -0.453 ± 0.33.

ASGLLPDLDVEKEDRCGIYE gave an amyloid nucleation score [1] of 0.859 ± 0.52.

With ASHLVVTLVNKVKCNAVVRG the amyloid nucleation score [1] was 0.758 ± 0.21.

ASILMSRKTMGSNRHCSFVG gave an amyloid nucleation score [1] of 0.345 ± 0.3.

In the case of ASKSYIITSSCRASLTVSSL, the amyloid nucleation score [1] is reported as “inactive”.

ASMDSSVPRAGDAGRSDMSS gave an amyloid nucleation score [1] of 2.26 ± 0.14.

Substance ASSFMSDGRT has an amyloid nucleation score [1] of 0.35 ± 0.56.

ASSNLNDTYITIDADSVHRR showed an amyloid nucleation score [1] of 0.033 ± 0.49.

In the case of ASTFYMVGSIG, the amyloid nucleation score [1] is reported as 2.8 ± 0.083.

ASYQRSCILRRFTFVSCILI gave an amyloid nucleation score [1] of 1.56 ± 0.17.

With ATDVCKKLWFALLVSVLVSS the amyloid nucleation score [1] was 0.642 ± 0.48.

Substance ATESIMLLPYNTDPSMTWLT has an amyloid nucleation score [1] of 0.227 ± 0.55.

With ATFFILRTYGVWVTSIKRRS the amyloid nucleation score [1] was 0.157 ± 1.

ATYPVSATGSGELWVDRGQE showed an amyloid nucleation score [1] of 0.603 ± 0.38.

AVATGNTCSPVSVRKSLGQS showed an amyloid nucleation score [1] of 1.87 ± 0.13.

With AVELGSGGALSRDKLQGQDG the amyloid nucleation score [1] was 0.791 ± 0.74.

Work on AVEQWQ yielded an amyloid nucleation score [1] of 1.58 ± 0.37.

AVLPSIDYGCEPRL showed an amyloid nucleation score [1] of 0.136 ± 0.5.

For AVMWTK, the amyloid nucleation score [1] was 0.669 ± 0.52.

AVPGVC gave an amyloid nucleation score [1] of 0.72 ± 0.26.

For AVYYGSMWLGQGGIVPW, the amyloid nucleation score [1] was 1.93 ± 0.15.

AWNLFLFQSRL showed an amyloid nucleation score [1] of 4.7 ± 0.073.

AWSLFYRLLPPWNE showed an amyloid nucleation score [1] of -0.656 ± 1.1.

In the case of AWTAETFKVLCVVMSY, the amyloid nucleation score [1] is reported as 0.382 ± 0.24.

With AWVYSMRQVYQLNCLDQIMY the amyloid nucleation score [1] was “inactive”.

With AWWRGPSFFNPSWKCMNDSS the amyloid nucleation score [1] was -0.84 ± 0.54.

Work on AYAHH yielded an amyloid nucleation score [1] of 4.08 ± 0.072.

Work on AYMNWCTLKMRR yielded an amyloid nucleation score [1] of -0.063 ± 0.28.

In the case of AYMVDLYYTVWPGIVLLYM, the amyloid nucleation score [1] is reported as 0.152 ± 0.44.

With AYRQMYTGNVR the amyloid nucleation score [1] was 3.97 ± 0.067.

AYSFDKHKNKGLSTASVGHM gave an amyloid nucleation score [1] of 0.894 ± 0.55.

In the case of AYSIFVFYTYVTTHLRHITR, the amyloid nucleation score [1] is reported as “inactive”.

AYWVQGCLLQMRMT gave an amyloid nucleation score [1] of 0.891 ± 0.22.

For CADFSGLFG, the amyloid nucleation score [1] was “inactive”.

In the case of CAEAFVMGFSSKGGVINRAL, the amyloid nucleation score [1] is reported as 2.1 ± 0.12.

CAGRFRCFLMSCIDCKLGVL showed an amyloid nucleation score [1] of -0.763 ± 1.

In the case of CALSVVTIHFCHTRAPGTPL, the amyloid nucleation score [1] is reported as 3.65 ± 0.082.

Substance CAPQSGKLGG has an amyloid nucleation score [1] of 1.01 ± 0.59.

CAQVRLQSAFIYSYMASVGR gave an amyloid nucleation score [1] of 3.32 ± 0.056.

With CAWFLTRWTVLSDLEGFY the amyloid nucleation score [1] was -1.35 ± 0.49.

Substance CCAQWSNFACSV has an amyloid nucleation score [1] of 5.392 ± 0.038.

With CCCWRECDNKRSRTLHCEAW the amyloid nucleation score [1] was 0.557 ± 0.66.

CCDNY showed an amyloid nucleation score [1] of -0.778 ± 0.54.

Substance CCFRLLGYAGN has an amyloid nucleation score [1] of -0.961 ± 0.5.

CCGLGELNLALLRELSWRVG showed an amyloid nucleation score [1] of 1.34 ± 0.25.

With CCHHR the amyloid nucleation score [1] was 1.08 ± 0.28.

For CCKMGRRDLRFLSDFVLCKL, the amyloid nucleation score [1] was “inactive”.

With CCNQEVLD the amyloid nucleation score [1] was 0.575 ± 0.66.

Work on CCWAVWDLRGFTRGWRLRRG yielded an amyloid nucleation score [1] of 0.509 ± 0.16.

With CDCWYFKC the amyloid nucleation score [1] was 5.42 ± 0.095.

With CDGAPSRLGRGLWGWSIMYG the amyloid nucleation score [1] was 0.921 ± 0.51.

For CDKQRFSRF, the amyloid nucleation score [1] was “inactive”.

Substance CDLLVPQRYSAGLPLPVVKE has an amyloid nucleation score [1] of 1.8 ± 0.24.

For CDMEHTV, the amyloid nucleation score [1] was -0.302 ± 0.61.

With CDRFYSSLVNSVGYCLLNAY the amyloid nucleation score [1] was 1.47 ± 0.21.

With CDRLELRN the amyloid nucleation score [1] was 0.065 ± 0.43.

CDSVVKRIFGTFAGVHLHME gave an amyloid nucleation score [1] of -0.228 ± 1.1.

With CDVGFSHRYSSNYDKTWDMI the amyloid nucleation score [1] was -0.7 ± 0.78.

With CDYEYGCQNKRGFRMLLKSW the amyloid nucleation score [1] was “inactive”.

With CECETVSLTFEHWCTRGRLG the amyloid nucleation score [1] was 5.156 ± 0.047.

Work on CEFQILSN yielded an amyloid nucleation score [1] of -0.381 ± 0.56.

With CERGLFFVMY the amyloid nucleation score [1] was -1.15 ± 1.1.

In the case of CERLNAPHLHQVRIPKRYNM, the amyloid nucleation score [1] is reported as 0.306 ± 0.64.

CERWRFI showed an amyloid nucleation score [1] of -0.02 ± 1.1.

CFAVAKEWLNAAVHGVGQFP gave an amyloid nucleation score [1] of 0.123 ± 0.38.

CFDKLAVMACKSSGWHNPPT showed an amyloid nucleation score [1] of 0.75 ± 0.43.

Substance CFDPGTNRCLPWAVGVGELG has an amyloid nucleation score [1] of 0.959 ± 0.74.

CFFRKMPHCRLTTWRRVASI gave an amyloid nucleation score [1] of 0.675 ± 0.25.

In the case of CFLELYSWFKDAVTTFN, the amyloid nucleation score [1] is reported as “inactive”.

Substance CFLGLYGDIASIFNQ has an amyloid nucleation score [1] of -0.889 ± 0.45.

Work on CFMYT yielded an amyloid nucleation score [1] of -0.415 ± 0.21.

Substance CFSCFIASGDT has an amyloid nucleation score [1] of 7.439 ± 0.026.

For CFVQLCACRYTIRNWGFRWL, the amyloid nucleation score [1] was “inactive”.

CFVSNRDYDF showed an amyloid nucleation score [1] of 0.773 ± 0.42.

Work on CGKCWCEVD yielded an amyloid nucleation score [1] of 0.359 ± 0.37.

For CHDMSSACLYSVGWS, the amyloid nucleation score [1] was “inactive”.

CHISLTKWCRFRVV gave an amyloid nucleation score [1] of -0.014 ± 0.76.

In the case of CHLLSRSCKFYGD, the amyloid nucleation score [1] is reported as -0.898 ± 1.1.

Work on CHNNFNCPNVLVFLARELSI yielded an amyloid nucleation score [1] of 4.99 ± 0.079.

CHNNFVYRGNAPRRHLEQGV gave an amyloid nucleation score [1] of 0.062 ± 0.77.

With CHVYYVQFVLAD the amyloid nucleation score [1] was -0.604 ± 0.76.

Work on CIFGMDKHTYQHVVHSTLLV yielded an amyloid nucleation score [1] of 0.181 ± 0.16.

With CIFYKVGLFFPCWYIVSVLS the amyloid nucleation score [1] was -2.03 ± 0.75.

With YYVRRIMT the amyloid nucleation score [2] was “inactive”.

Work on YYWCFSF yielded an amyloid nucleation score [2] of 2.23 ± 0.06.

For YYYLR, the amyloid nucleation score [2] was “inactive”.
